Source: IntAct's records for PubMed 12620189

B1: SCOCO-like protein 1 (Saccharomyces cerevisiae), Q3E784 (parent)
chain: MSAENISTGSPTGKQPSSEVNLGEREAGTKNERMMRQTKLLKDTLDLLWNKTLEQQEVCEQLKQENDYLEDYIGNLMRSSNVLEK
partner: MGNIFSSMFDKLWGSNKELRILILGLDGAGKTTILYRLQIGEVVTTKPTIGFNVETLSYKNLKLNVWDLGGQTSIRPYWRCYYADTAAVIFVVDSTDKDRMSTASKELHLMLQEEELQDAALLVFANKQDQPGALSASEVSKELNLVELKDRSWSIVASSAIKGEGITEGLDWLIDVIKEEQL

Variants of: B1
Conditions: with arl1_yeast ARL1, P38116

effect of a mutation on the interaction	Variant
disrupting interaction	Y72A
